# Patent US20230365662A1
# Where “and” joins values, the source holds several entries; their conditions need not be identical. Equal values may be shown once.
# Key:
# [1] = target: HRgpA-6H (Porphyromonas gingivalis) (UniProt P28784); test: ELISA on coated HRgpA-6H (coating concentration not stated); secondary Goat Anti-Human IgG, F(ab')2
# [2] = target: HRgpA-6H (Porphyromonas gingivalis) (UniProt P28784); test: ELISA on coated HRgpA-6H (coating concentration not stated); secondary Mouse Anti-Human IgG, F(ab')2
# [3] = target: HRgpA-6H (Porphyromonas gingivalis) (UniProt P28784); test: ELISA on coated HRgpA-6H (coating concentration not stated); secondary Anti-BSA (HRP)
# [4] = target: HRgpA-6H (Porphyromonas gingivalis) (UniProt P28784); test: ELISA on coated HRgpA-6H (coating concentration not stated); secondary Goat Anti-Human IgG (H+L)
# [5] = target: Porphyromonas gingivalis strain W83 whole cells (surface gingipain/adhesin/hemagglutinin complex); test: scanning electron microscopy, gold-labelled KB001
# [6] = target: P. gingivalis laboratory strains, serotypes and human clinical isolates (whole cells); test: immunogold SEM
# [7] = target: Porphyromonas gingivalis strain W83 whole cells (surface gingipain/adhesin/hemagglutinin complex)
# [8] = target: HRgpA-6H (Porphyromonas gingivalis) (UniProt P28784); test: ELISA, HRgpA-6H coated 0.5 ug/ml; mouse Fab FASEBA supernatant; Goat Anti-MOUSE IgG (Fab specific) [HRP]
# [9] = target: HRgpA-6H (Porphyromonas gingivalis) (UniProt P28784); test: ELISA, HRgpA-6H coated 0.125 ug/ml; mouse Fab FASEBA supernatant; Goat Anti-MOUSE IgG (Fab specific) [HRP]
# [10] = target: HRgpA-6H (Porphyromonas gingivalis) (UniProt P28784); test: ELISA, HRgpA-6H coated 0.0625 ug/ml; mouse Fab FASEBA supernatant; Goat Anti-MOUSE IgG (Fab specific) [HRP]
# [11] = target: HRgpA-6H (Porphyromonas gingivalis) (UniProt P28784); test: ELISA, HRgpA-6H coated 0.25 ug/ml; mouse Fab FASEBA supernatant; Goat Anti-MOUSE IgG (Fab specific) [HRP]
# [12] = target: HRgpA-6H (Porphyromonas gingivalis) (UniProt P28784); test: ELISA, HRgpA-6H coated 1 ug/ml; mouse Fab FASEBA supernatant; Goat Anti-MOUSE IgG (Fab specific) [HRP]
# [13] = target: HRgpA-6H (Porphyromonas gingivalis) (UniProt P28784); test: ELISA, HRgpA-6H coated 2 ug/ml; mouse Fab FASEBA supernatant; Goat Anti-MOUSE IgG (Fab specific) [HRP]
molecule,measurement,setting,value
non-related FASEBA supernatant (NC) (Fab),OD450,[1],0.672
same,OD450,[2],0.552 and 0.288
same,OD450,[3],1.09
same,OD450,[4],1.15 and 0.736
"KB001 (antibody, V domains shown) VH: EVQLKQSGPGLVAPSQSLSITCTVSGFSLSIYSVHWVRQPPGKGLEWLGMIWGGGSSDYNSALKSRLSISKDNSKSQVFLKMNSLQTDDTAMYYCARNGNFYAMDYWGQGTSVTVSS VL: QIVLTQSPAIMSASLGERVTMTCTASSSVSSSFLHWYQQKPGSSPQLWIYSTSNLASGVPARFSGSGSGTSYSLTISSMEAEDAATYYCHQYHHSPYIYTFGGGTKLEIKR",IgG molecules bound per bacteria (molecules per bacterium),[5],60 and 80
same,average labeled density,[6],50 µm^-2
same,Kd,[7],11.4 nM
same,Response,[7],0.216 and 0.186 and 0.297
same,koff,[7],0.000219 s⁻¹
same,kon,[7],19200 M⁻¹ s⁻¹
"parental mouse Fab FASEBA sample (Fab, V domains shown) VH: EVQLKQSGPGLVAPSQSLSITCTVSGFSLSIYSVHWVRQPPGKGLEWLGMIWGGGSSDYNSALKSRLSISKDNSKSQVFLKMNSLQTDDTAMYYCARNGNFYAMDYWGQGTSVTVSS VL: QIVLTQSPAIMSASLGERVTMTCTASSSVSSSFLHWYQQKPGSSPQLWIYSTSNLASGVPARFSGSGSGTSYSLTISSMEAEDAATYYCHQYHHSPYIYTFGGGTKLEIKR",OD450,[8],1.76 and 1.82
same,OD450,[9],1.17 and 1.13
same,OD450,[10],0.755 and 0.687
same,OD450,[11],1.58 and 1.51
same,OD450,[12],1.94 and 2.02
same,OD450,[13],2.04 and 1.98
